This passage reports binding results from article PMC9040800.

The test system of this data set is DctD2 D57Q (d-DctD2 mimic) (Vibrio vulnificus). Description: EMSA. The note with it: EMSA: 50 mM Tris-HCl pH 8.0, 20 mM KCl, 50 mM MgCl2 (so in the source), 100 mM NaCl; approx. 50 nM 32P-labeled probe; 6% native PAGE; temperature not stated. Background: Mobility shift assays separate free from complexed probe on a gel.

Some results are limits rather than exact numbers.

“EPS-II cluster regulatory region probe (480 bp)” yielded a binding above 700 nM.
